Reference: article PMC10351726 (PLOS ONE, 2023)

How the values were obtained:
Conditions in all cases: both partners purified
human HER2-ECD-Fc [1] = biological target: T1, human HER2-ECD-Fc (Homo sapiens, UniProt P04626); experiment: ELISA; microplates coated with human or mouse HER2-ECD-Fc, blocked with 1% BSA at room temperature; NM-02 serially diluted from 160 nM; detected with mouse anti-HA and anti-mouse IgG-alkaline phosphatase
T1 construct: human epidermal growth factor receptor-2 (HER2), extracellular domain; The supplier is named only for the cross-reactivity ELISA; also called recombinant human HER2-Fc; recombinant human HER2-ECD; source: bought: R&D systems

mouse HER2-ECD-Fc = biological target: T2, mouse HER2-ECD-Fc (Mus musculus, UniProt P70424); experiment: as above
T2 construct: mouse HER2 (ErbB2), extracellular domain; also called murine HER2-ECD; recombinant murine HER2-ECD; source: bought: R&D systems

[2] = biological target: T3, HER2-ECD biotinylated at single site (Homo sapiens, UniProt P04626, biotinylated at single site); experiment: SPR; Biacore 8K; biotinylated HER2-ECD on a streptavidin chip; sdAbs injected in multi-cycle kinetics, 2-fold dilution series from 5 nM; 100 μL/min, 25°C, HBS-EP+ pH 7.4; 1:1 model
T3 construct: human HER2 extracellular domain; also called ECD of HER2; source: bought: Sino Biological

human HER2-ECD-Fc [3] = biological target: T1, human HER2-ECD-Fc; experiment: ELISA; recombinant human HER2-Fc (1 μg/mL) coated on a MaxiSorp plate; His-tagged sdAb pre-incubated 7 days at 37°C in human, mouse or cynomolgus serum or PBS, then serially diluted; detected with anti-HIS-HRP

T2 sequence (P70424 23-653): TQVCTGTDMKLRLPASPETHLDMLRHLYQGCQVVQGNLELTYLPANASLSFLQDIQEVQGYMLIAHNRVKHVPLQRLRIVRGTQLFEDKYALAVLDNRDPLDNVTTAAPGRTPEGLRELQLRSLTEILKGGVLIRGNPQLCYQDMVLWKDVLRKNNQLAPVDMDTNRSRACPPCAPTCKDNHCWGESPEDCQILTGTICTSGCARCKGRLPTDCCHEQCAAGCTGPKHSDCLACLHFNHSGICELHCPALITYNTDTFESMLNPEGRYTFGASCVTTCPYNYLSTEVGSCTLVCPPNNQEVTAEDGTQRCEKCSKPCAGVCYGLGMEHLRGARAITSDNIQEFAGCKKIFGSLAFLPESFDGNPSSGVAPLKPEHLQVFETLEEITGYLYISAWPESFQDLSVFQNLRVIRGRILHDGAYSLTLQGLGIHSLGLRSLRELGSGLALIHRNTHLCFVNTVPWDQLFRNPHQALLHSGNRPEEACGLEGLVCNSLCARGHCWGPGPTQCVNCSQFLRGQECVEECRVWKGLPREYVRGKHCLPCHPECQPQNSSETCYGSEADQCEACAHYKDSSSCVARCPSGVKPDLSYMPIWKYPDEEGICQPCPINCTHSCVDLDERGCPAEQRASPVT

Binder	binding result [2]	further results
NanoMab-02 (NM-02), HA- and His-tagged (VHH, camel (Camelus bactrianus) anti-HER2 single-domain antibody from a phage display library; In the ELISA and flow cytometry it was detected through the HA tag only; The microarray used the dual His6 + HA version (methods: 'either HA- and/or His-tagged'); also called dual tagged version of NM-02; duel-tagged NM-02) VHH: QVQLQESGGGSVQAGETLRLSCTASGFTFDDSDMGWYRQAPGNECELVSSISSDGSTYYADSVKGRFTISQDNAKNTVYLQMNSLKPEDTGVYYCAAEGHRYELGTCAALDYWGRGTQVTVSS		EC50 (human HER2-ECD-Fc [1]): 1.2 nM; binding result (mouse HER2-ECD-Fc): no binding (tested: 160 nM)
lead humanised NM-02 candidate (variant K) (VHH, humanised variant K of NM-02, 82.5% human identity; also called humanised variant K; humanised lead; source: ExpiCHO-S, transiently transfected, purified (HisTrap Excel, SEC); not shown: His-tag (with short GSG linker), C-terminal, kept) VHH: QVQLQESGGGLVQPGGSLRLSCTASGFTFDDSDMGWYRQAPGNECELVSSISSDGSTYYADSVKGRFTISQDNSKNTLYLQMNSLRAEDTGVYYCAAEGHRYELGTCAALDYWGRGTLVTVSS		Kd [2]: 0.212 nM; fold more potent than variant E [2]: ≥ 2 fold; fold drop-off of activity after 7 days at 37°C in human serum versus PBS (human HER2-ECD-Fc [3]): 1.5 fold
humanised NM-02 variant E (VHH, humanised variant E of NM-02, 83.5% human identity; also called mid-humanised candidate; source: ExpiCHO-S, transiently transfected, purified (HisTrap Excel, SEC)) VHH: QVQLQESGGGLVQPGGSLRLSCSASGFTFDDSDMGWYRQAPGNECELVSSISSDGSTYYADSVKGRFTISQDNSKNTLYLQMNSLRAEDTGVYYCAAEGHRYELGTCAALDYWGRGTLVTVSS	binds	
humanised NM-02 variant B (VHH, humanised variant B of NM-02; source: ExpiCHO-S, transiently transfected, purified (HisTrap Excel, SEC)) VHH: QVQLQESGGGLVQPGETLRLSCAASGFTFDDSDMGWYRQAPGNECELVSSISSDGSTYYADSVKGRFTISQDNSKNTLYLQMNSLRAEDTGVYYCAAEGHRYELGTCAALDYWGRGTLVTVSS	binds	
humanised NM-02 variant D (VHH, humanised variant D of NM-02; source: ExpiCHO-S, transiently transfected, purified (HisTrap Excel, SEC)) VHH: QVQLQESGGGLVQPGGSLRLSCAASGFTFDDSDMGWYRQAPGNECELVSSISSDGSTYYADSVKGRFTISQDNSKNTLYLQMNSLRAEDTGVYYCAAEGHRYELGTCAALDYWGRGTLVTVSS	binds	
humanised NM-02 variant F (VHH, humanised variant F of NM-02; source: ExpiCHO-S, transiently transfected, purified (HisTrap Excel, SEC)) VHH: QVQLQESGGGLVQPGGSLRLSCSASGFTFDDSDMGWYRQAPGNECELVSSISSDGSTYYADSVKGRFTISQDNSKNTLYLQMNSLRAEDTAVYYCAAEGHRYELGTCAALDYWGRGTLVTVSS	binds	
humanised NM-02 variant G (VHH, humanised variant G of NM-02, with parental back mutations; source: ExpiCHO-S, transiently transfected, purified (HisTrap Excel, SEC)) VHH: QVQLQESGGGLVQPGGSLRLSCSASGFTFDDSDMGWYRQAPGNECELVSSISSDGSTYYADSVKGRFTISQDNSKNTLYLQMNSLRAEDTAVYYCAAEGHRYELGTCAALDYWGRGTQVTVSS	binds	
humanised NM-02 variant H (VHH, humanised variant H of NM-02, with parental back mutations; source: ExpiCHO-S, transiently transfected, purified (HisTrap Excel, SEC)) VHH: QVQLQESGGGSVQPGGSLRLSCSASGFTFDDSDMGWYRQAPGNECELVSSISSDGSTYYADSVKGRFTISQDNSKNTLYLQMNSLRAEDTAVYYCAAEGHRYELGTCAALDYWGRGTLVTVSS	binds	
humanised NM-02 variant I (VHH, humanised variant I of NM-02, with parental back mutations; source: ExpiCHO-S, transiently transfected, purified (HisTrap Excel, SEC)) VHH: QVQLQESGGGLVQPGGSLRLSCSASGFTFDDSDMGWYRQAPGNECELVSSISSDGSTYYADSVKGRFTISQDNSKNTLYLQMNSLRAEDTGVYYCAAEGHRYELGTCAALDYWGRGTQVTVSS	binds	
humanised NM-02 variant J (VHH, humanised variant J of NM-02, with parental back mutations; source: ExpiCHO-S, transiently transfected, purified (HisTrap Excel, SEC)) VHH: QVQLQESGGGSVQPGGSLRLSCSASGFTFDDSDMGWYRQAPGNECELVSSISSDGSTYYADSVKGRFTISQDNSKNTLYLQMNSLRAEDTGVYYCAAEGHRYELGTCAALDYWGRGTQVTVSS	binds	
humanised NM-02 variant L (VHH, humanised variant L of NM-02, with parental back mutations; source: ExpiCHO-S, transiently transfected, purified (HisTrap Excel, SEC)) VHH: QVQLQESGGGLVQPGGSLRLSCSASGFTFDDSDMGWYRQAPGNECELVSSISSDGSTYYADSVKGRFTISQDNAKNTLYLQMNSLRAEDTGVYYCAAEGHRYELGTCAALDYWGRGTLVTVSS	binds	
humanised NM-02 variant M (VHH, humanised variant M of NM-02, with parental back mutations; source: ExpiCHO-S, transiently transfected, purified (HisTrap Excel, SEC)) VHH: QVQLQESGGGLVQPGGSLRLSCSASGFTFDDSDMGWYRQAPGNECELVSSISSDGSTYYADSVKGRFTISQDNSKNTVYLQMNSLRAEDTGVYYCAAEGHRYELGTCAALDYWGRGTLVTVSS	binds	
humanised NM-02 variant N (VHH, humanised variant N of NM-02, with parental back mutations; source: ExpiCHO-S, transiently transfected, purified (HisTrap Excel, SEC)) VHH: QVQLQESGGGLVQPGGSLRLSCSASGFTFDDSDMGWYRQAPGNECELVSSISSDGSTYYADSVKGRFTISQDNSKNTLYLQMNSLRPEDTGVYYCAAEGHRYELGTCAALDYWGRGTLVTVSS	binds	
NanoMab-02 (NM-02) (VHH, camel (Camelus bactrianus) anti-HER2 single-domain antibody; residues Gln3 to Ser123 modelled in the structure; The humanised variants were made in ExpiCHO-S with a C-terminal GSG-His tag, and the parent run beside them may have the same format; also called parent; wild type NM-02) VHH: QVQLQESGGGSVQAGETLRLSCTASGFTFDDSDMGWYRQAPGNECELVSSISSDGSTYYADSVKGRFTISQDNAKNTVYLQMNSLKPEDTGVYYCAAEGHRYELGTCAALDYWGRGTQVTVSS		Kd [2]: ~0.2 nM
